This is an account of results in patent US20240117010A1 (NAVIGO PROTEINS, published 2024).

For assay [1], the target named is SARS-CoV2 S1 protein (S1 domain of the spike protein) (SARS-Cov-2, UniProt P0DTC2 16-685).
The target in assay [2] is SARS-CoV2 RBD (receptor binding domain of the spike protein) (SARS-Cov-2, UniProt P0DTC2 319-541).

B1: 212434 (SEQ ID NO: 1) (designed binder)
chain: NAAVLDIAQHSATEEIWWLPNLTKQQKVWFIMSLTQDPSVSKEVLGEAQKLNDSQAPK
A word on the Kd: it is the concentration at which binding is half-saturated. For the molecule B1, the Kd in assay [1] was 3.8 nM; in assay [2], 10.2 nM.

B2: 212522 (SEQ ID NO: 19) (designed binder)
chain: IAAKFDEAQQAAFYEILHLPNLTELQRNWFIQLLRDDPSVSLQVLGHAQYLNDSQAPKIAAKFDEAQQYAFYQILHLHNLTEEQRNAFIQSLRDDPSVSHEVLGEAKKLNESQAPK
For B2, the Kd turned out to be 24.1 nM in assay [1] and 27.1 nM in assay [2].
